This test addresses Human IL-21 receptor on Baf3/KZ134/huIL-21R cells (human) (UniProt Q9HBE5). Kind of test: cell-based or functional assay.

Human IL-21 receptor on Baf3/KZ134/huIL-21R cells (human), sequence (Q9HBE5 20-538): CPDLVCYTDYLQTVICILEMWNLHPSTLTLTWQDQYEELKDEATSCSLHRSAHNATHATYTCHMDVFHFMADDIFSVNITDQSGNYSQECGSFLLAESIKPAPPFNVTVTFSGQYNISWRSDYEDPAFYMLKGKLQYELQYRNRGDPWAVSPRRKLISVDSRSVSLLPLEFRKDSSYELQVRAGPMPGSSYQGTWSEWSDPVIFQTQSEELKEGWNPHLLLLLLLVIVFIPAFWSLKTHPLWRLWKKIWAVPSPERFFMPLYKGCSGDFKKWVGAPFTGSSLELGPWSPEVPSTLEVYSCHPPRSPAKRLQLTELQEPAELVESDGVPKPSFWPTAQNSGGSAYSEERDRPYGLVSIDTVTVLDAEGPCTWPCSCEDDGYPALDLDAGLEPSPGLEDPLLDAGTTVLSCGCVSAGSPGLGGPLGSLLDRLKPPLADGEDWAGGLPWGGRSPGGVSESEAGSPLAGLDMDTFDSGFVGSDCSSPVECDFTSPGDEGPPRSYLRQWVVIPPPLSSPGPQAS

Take “Recombinant rat IL-21 (from UniProt A3QPB9 18-146) (ligand)”: the EC90 in STAT-Luciferase assay was found to be 1.08 nM.

For the origin of these results see US20120225065A1.
